From paper PMC8753264 come the findings set out here.

Common to all, as to assay: In vitro phosphorylation kinetics with recombinant Akt
Type in all cases: biochemical
Conditions in all cases: other: recombinant Akt; n = 3

The test system of data set [1] is CC(C)[C@H](NC(=O)[C@H](CCC(=O)O)NC(=O)[C@H](CCC(=O)O)NC(=O)[C@H](Cc1ccc(O)cc1)NC(=O)[C@H](CCC(=O)O)NC(=O)[C@H](CC(=O)O)NC(=O)[C@H](CC(=O)O)NC(=O)[C@H](CCC(=O)O)NC(=O)CCCCCNC(=O)[C@H](C)N(C)C(=O)[C@H](Cc1ccccc1)NC(=O)[C@@H](NC(=O)[C@H](Cc1ccccc1)NC(=O)[C@H](C)NC(=O)[C@H](CCCNC(=N)N)N(C)C(=O)[C@@H]1CCCN1C(=O)[C@H](CCCNC(=N)N)NC(=O)CNC(=O)c1ccc2c(c1)C1(OC2=O)c2ccc(O)cc2Oc2cc(O)ccc21)[C@@H](C)O)C(N)=O.

Data set [2] deals with CC(C)[C@H](NC(=O)[C@H](CCC(=O)O)NC(=O)[C@H](CCC(=O)O)NC(=O)[C@H](Cc1ccc(O)cc1)NC(=O)[C@H](CCC(=O)O)NC(=O)[C@H](CC(=O)O)NC(=O)[C@H](CC(=O)O)NC(=O)[C@H](CCC(=O)O)NC(=O)[C@@H](CCCNC(=N)N)NC(=O)[C@@H](CCCNC(=N)N)NC(=O)[C@@H](CCCNC(=N)N)NC(=O)[C@H](C)N(C)C(=O)[C@H](Cc1ccccc1)NC(=O)[C@@H](NC(=O)[C@H](Cc1ccccc1)NC(=O)[C@H](C)NC(=O)[C@H](CCCNC(=N)N)N(C)C(=O)[C@@H]1CCCN1C(=O)[C@H](CCCNC(=N)N)NC(=O)CNC(=O)c1ccc2c(c1)C1(OC2=O)c2ccc(O)cc2Oc2cc(O)ccc21)[C@@H](C)O)C(N)=O.

Data set [3] deals with CC(C)[C@H](NC(=O)[C@H](CCC(=O)O)NC(=O)[C@H](CCC(=O)O)NC(=O)[C@@H]1Cc2ccc(O)cc2CN1C(=O)[C@H](CCC(=O)O)NC(=O)[C@H](CC(=O)O)NC(=O)[C@H](CC(=O)O)NC(=O)[C@H](CCC(=O)O)NC(=O)[C@@H](CCCNC(=N)N)NC(=O)[C@@H](CCCNC(=N)N)NC(=O)[C@@H](CCCNC(=N)N)NC(=O)[C@H](C)N(C)C(=O)[C@H](Cc1ccccc1)NC(=O)[C@@H](NC(=O)[C@H](Cc1ccccc1)NC(=O)[C@H](C)NC(=O)[C@H](CCCNC(=N)N)N(C)C(=O)[C@@H]1CCCN1C(=O)[C@H](CCCNC(=N)N)NC(=O)CNC(=O)c1ccc2c(c1)C1(OC2=O)c2ccc(O)cc2Oc2cc(O)ccc21)[C@@H](C)O)C(N)=O.

On to recombinant Akt (Homo sapiens), for which the Km in data set [1] is 28 ± 16 µM; in data set [2], 14 ± 3 µM; in data set [3], 17 ± 5 µM. Moreover, the turnover number (kcat) in data set [1] was 1.0 ± 0.4 s⁻¹; in data set [2], 0.7 ± 0.1 s⁻¹; in data set [3] it was 0.8 ± 0.1 s⁻¹.

Broadly, the Km is the concentration of substrate that gives half-maximal velocity. As a reminder, the kcat is the maximal rate divided by the concentration of active sites.
